Our source for the Kd values is PMC5812716 (2018).

Read-outs that look alike come from different tables or passages of the source.

Test [1] concerns the target T1, MukB (E. coli, UniProt P22523 1-1486).
T1 chain: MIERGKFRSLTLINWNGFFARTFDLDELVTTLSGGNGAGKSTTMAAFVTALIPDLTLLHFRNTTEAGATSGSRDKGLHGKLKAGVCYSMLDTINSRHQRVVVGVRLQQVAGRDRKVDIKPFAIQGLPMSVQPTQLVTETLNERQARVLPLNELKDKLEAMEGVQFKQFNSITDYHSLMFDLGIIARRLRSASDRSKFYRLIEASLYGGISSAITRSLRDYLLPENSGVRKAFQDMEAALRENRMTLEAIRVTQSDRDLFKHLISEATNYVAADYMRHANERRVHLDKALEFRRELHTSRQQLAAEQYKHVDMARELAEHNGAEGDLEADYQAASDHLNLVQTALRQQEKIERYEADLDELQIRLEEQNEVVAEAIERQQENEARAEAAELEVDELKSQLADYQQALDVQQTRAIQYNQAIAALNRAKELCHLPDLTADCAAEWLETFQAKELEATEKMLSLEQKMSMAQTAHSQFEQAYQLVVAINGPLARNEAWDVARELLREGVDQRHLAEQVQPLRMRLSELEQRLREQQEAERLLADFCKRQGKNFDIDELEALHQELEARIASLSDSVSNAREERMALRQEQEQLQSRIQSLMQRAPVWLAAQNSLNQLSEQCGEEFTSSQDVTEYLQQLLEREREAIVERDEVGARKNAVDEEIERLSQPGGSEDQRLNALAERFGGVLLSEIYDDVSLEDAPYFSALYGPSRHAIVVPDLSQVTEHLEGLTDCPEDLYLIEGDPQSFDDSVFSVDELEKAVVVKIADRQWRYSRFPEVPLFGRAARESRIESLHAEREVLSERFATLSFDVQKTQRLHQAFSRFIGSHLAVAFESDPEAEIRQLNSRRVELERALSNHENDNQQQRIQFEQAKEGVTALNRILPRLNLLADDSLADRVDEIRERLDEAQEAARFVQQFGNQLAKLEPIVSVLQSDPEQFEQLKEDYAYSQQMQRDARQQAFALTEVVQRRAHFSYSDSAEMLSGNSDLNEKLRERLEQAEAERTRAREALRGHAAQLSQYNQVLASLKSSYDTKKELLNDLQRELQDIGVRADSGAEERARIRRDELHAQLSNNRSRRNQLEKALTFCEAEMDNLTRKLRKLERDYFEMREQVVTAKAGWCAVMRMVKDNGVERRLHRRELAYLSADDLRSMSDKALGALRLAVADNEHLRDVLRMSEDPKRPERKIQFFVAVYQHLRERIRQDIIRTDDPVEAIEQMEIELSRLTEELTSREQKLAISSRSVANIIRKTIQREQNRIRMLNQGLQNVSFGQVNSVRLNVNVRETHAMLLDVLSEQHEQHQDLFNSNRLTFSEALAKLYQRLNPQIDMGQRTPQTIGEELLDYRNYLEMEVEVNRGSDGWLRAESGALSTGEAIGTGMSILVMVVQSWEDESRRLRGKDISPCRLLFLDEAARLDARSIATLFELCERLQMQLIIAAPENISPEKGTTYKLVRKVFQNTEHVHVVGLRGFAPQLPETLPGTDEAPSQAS
As to the kind of experiment: FP.

Test [2] has as its target T1, MukB.

B1: Cy5 labelled FC2 (domain or fragment)
chain: AIDMDKNRVFAQRLRQSVQTYFDEPWALTYANADRLLDMRDEEMALRDEEVTGELPEDLEYEEFNEIREQLAAIIEEQLAVYKTRQVPLDLGLVVREYLSQYPRARHFDVARIVIDQAVRLGVAQADFTGLPAKWQPINDYGAKVQAHVIDKY
modifications: Cy5 label (site not stated)
With B1, binding in the test with MukB [1] was put at a Kd of 23 nM.

B2: Cy5 labelled FN2 (domain or fragment)
chain: MSEFSQTVPELVAWARKNDFSISLPVDRLSFLLAVATLNGERLDGEMSEGELVDAFRHVSDAFEQTSETIGVRANNAINDMVRQRLLNRFTSEQAEGNAIYRLTPLGIGITDYYIRQREFSTLRLSMQLSIVAGELKRAADAAEEGGDEFHWHRNVYAPLKYSVAEIFDSIDLTQRLMDEQQQQVKDDIAQLLNKDWRAAISSCELLLSETSGTLRELQDTLEAAGDKLQANLLRIQDATMTHDDLHFVDRLVFDLQSKLDRIISWGQQSIDLWIGYDRHVHKFIRT
modifications: Cy5 label (site not stated)
Consider B2, for which the Kd – broadly, the free concentration of one partner at which half of the binding sites on the other are occupied at equilibrium, for simple one-to-one binding – with MukB [2] was found to be 26 nM.

B3: Cy5 labelled FN10 (domain or fragment)
chain: MSEFSQTVPELVAWARKNDFSISLPVDRLSFLLAVATLNGERLDGEMSEGELVDAFRHVSDAFEQTSETIGVRANNAINDMVRQRLLNRFTSEQAEGNAIYRLTPLGIGITDYYIRQREFSTLRLSMQLSIVAGELKRAADAAEEGGDEFHWHRNVYAPLKYSVAEIFDSIDLTQRLMDEQQQQVKDDIAQLLNKDWRAAISSCELLLSETSGTLRELQDTLEAAGDKLQANLLRIQDATMTHDDLHFVDRLVFDLQSKLDRIISWGQQSIDLWIGYDRHVHKFIRTAIDMDKNRVFAQRLRQSVQTYFDEPWALTYANADRLLDMRDEEMALRDEEVTGELPED
modifications: Cy5 label (site not stated)
Consider B3, for which the Kd with MukB [2] was 10 nM. Against the preceding molecule, the Kd is about 2.6-fold lower.

B4: Cy5 labelled FN3 (domain or fragment)
chain: REFSTLRLSMQLSIVAGELKRAADAAEEGGDEFHWHRNVYAPLKYSVAEIFDSIDLTQRLMDEQQQQVKDDIAQLLNKDWRAAISSCELLLSETSGTLRELQDTLEAAGDKLQANLLRIQDATMTHDDLHFVDRLVFDLQSKLDRIISWGQQSIDLWIGYDRHVHKFIRT
modifications: Cy5 label (site not stated)
Take B4: in the test with MukB [1], the Kd came out at 21 nM.
